From patent US20230257458A1 (SUNSHINE LAKE PHARMA, published 2023)

T1: IL-11 protein (UniProt P20809 22-199, limits assumed)
T1 construct: also called IL-11 antigen
T1 sequence (looked up): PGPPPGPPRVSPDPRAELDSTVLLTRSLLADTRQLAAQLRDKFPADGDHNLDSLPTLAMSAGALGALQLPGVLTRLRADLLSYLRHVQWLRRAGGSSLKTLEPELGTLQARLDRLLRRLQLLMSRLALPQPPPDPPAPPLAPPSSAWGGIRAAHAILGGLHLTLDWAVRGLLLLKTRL

B1: VH3 + VL3-scFv (scFv, V domains shown)
VH: QVQLVQSGAEVKKPGASVKVSCKASDYTFTNYWLGWVRQAPGQGLEWIGHIYPGGGYTNYNEKFKGRATLTADTSTSTVYMELSSLRSEDTAVYFCARVRSGNDALDFWGQGTLVTVSS
VL: EIVLTQSPATLSLSPGERATLSCRASESVDEYGISFMNWFQQKPGQAPRLLIYSASNQGSGIPARFSGSGSGTDFTLTISSLEPEDFAVYFCQQSKEVPWTFGGGTKLEIK
notes: Humanized 5-20E11-5F2; CHO supernatant; Called scFv, but heavy and light vectors were co-transfected
B2: VH1 + VL1-scFv (scFv, V domains shown)
VH: QVQLVQSGAEVKKPGASVKVSCKASDYTFTNYWLGWVRQAPGQGLEWMGHIYPGGGYTNYNEKFKGRVTMTRDTSTSTVYMELSSLRSEDTAVYYCARVRSGNDALDFWGQGTLVTVSS
VL: EIVLTQSPATLSLSPGERATLSCRASESVDEYGISFMNWYQQKPGQAPRLLIYSASNQGSGIPARFSGSGSGTDFTLTISSLEPEDFAVYYCQQSKEVPWTFGGGTKLEIK
notes: as for B1
B3: VH1 + VL4-scFv (scFv, V domains shown)
VH: QVQLVQSGAEVKKPGASVKVSCKASDYTFTNYWLGWVRQAPGQGLEWMGHIYPGGGYTNYNEKFKGRVTMTRDTSTSTVYMELSSLRSEDTAVYYCARVRSGNDALDFWGQGTLVTVSS
VL: EIVLTQSPATLSLSPGERATLSCRASESVDEYGISFMNWFQQKPGQAPRLLIYSASNQGSGIPARFSGSGSGTDFTLTISSLEPEDFAMYFCQQSKEVPWTFGGGTKLEIK
notes: as for B1
B4: VH2 + VL1-scFv (scFv, V domains shown)
VH: QVQLVQSGAEVKKPGASVKVSCKASDYTFTNYWLGWVRQAPGQGLEWIGHIYPGGGYTNYNEKFKGRVTMTADTSTSTVYMELSSLRSEDTAVYFCARVRSGNDALDFWGQGTLVTVSS
VL: EIVLTQSPATLSLSPGERATLSCRASESVDEYGISFMNWYQQKPGQAPRLLIYSASNQGSGIPARFSGSGSGTDFTLTISSLEPEDFAVYYCQQSKEVPWTFGGGTKLEIK
notes: as for B1
B5: VH4 + VL1-scFv (scFv, V domains shown)
VH: QVQLVQSGAEVKKPGASVKVSCKASDYTFTNYWLGWVRQAPGHGLEWIGHIYPGGGYTNYNEKFKGRATLTADTSTSTVYMELSSLRSEDTAVYFCARVRSGNDALDFWGQGTLVTVSS
VL: EIVLTQSPATLSLSPGERATLSCRASESVDEYGISFMNWYQQKPGQAPRLLIYSASNQGSGIPARFSGSGSGTDFTLTISSLEPEDFAVYYCQQSKEVPWTFGGGTKLEIK
notes: as for B1
B6: VH4 + VL3-scFv (scFv, V domains shown)
VH: QVQLVQSGAEVKKPGASVKVSCKASDYTFTNYWLGWVRQAPGHGLEWIGHIYPGGGYTNYNEKFKGRATLTADTSTSTVYMELSSLRSEDTAVYFCARVRSGNDALDFWGQGTLVTVSS
VL: EIVLTQSPATLSLSPGERATLSCRASESVDEYGISFMNWFQQKPGQAPRLLIYSASNQGSGIPARFSGSGSGTDFTLTISSLEPEDFAVYFCQQSKEVPWTFGGGTKLEIK
notes: as for B1
B7: VH1 + VL2-scFv (scFv, V domains shown)
VH: QVQLVQSGAEVKKPGASVKVSCKASDYTFTNYWLGWVRQAPGQGLEWMGHIYPGGGYTNYNEKFKGRVTMTRDTSTSTVYMELSSLRSEDTAVYYCARVRSGNDALDFWGQGTLVTVSS
VL: EIVLTQSPATLSLSPGERATLSCRASESVDEYGISFMNWYQQKPGQAPRLLIYSASNQGSGIPARFSGSGSGTDFTLTISSLEPEDFAVYFCQQSKEVPWTFGGGTKLEIK
notes: as for B1
B8: VH1 + VL3-scFv (scFv, V domains shown)
VH: QVQLVQSGAEVKKPGASVKVSCKASDYTFTNYWLGWVRQAPGQGLEWMGHIYPGGGYTNYNEKFKGRVTMTRDTSTSTVYMELSSLRSEDTAVYYCARVRSGNDALDFWGQGTLVTVSS
VL: EIVLTQSPATLSLSPGERATLSCRASESVDEYGISFMNWFQQKPGQAPRLLIYSASNQGSGIPARFSGSGSGTDFTLTISSLEPEDFAVYFCQQSKEVPWTFGGGTKLEIK
notes: as for B1
B9: VH3 + VL2-scFv (scFv, V domains shown)
VH: QVQLVQSGAEVKKPGASVKVSCKASDYTFTNYWLGWVRQAPGQGLEWIGHIYPGGGYTNYNEKFKGRATLTADTSTSTVYMELSSLRSEDTAVYFCARVRSGNDALDFWGQGTLVTVSS
VL: EIVLTQSPATLSLSPGERATLSCRASESVDEYGISFMNWYQQKPGQAPRLLIYSASNQGSGIPARFSGSGSGTDFTLTISSLEPEDFAVYFCQQSKEVPWTFGGGTKLEIK
notes: as for B1
B10: VH4 + VL2-scFv (scFv, V domains shown)
VH: QVQLVQSGAEVKKPGASVKVSCKASDYTFTNYWLGWVRQAPGHGLEWIGHIYPGGGYTNYNEKFKGRATLTADTSTSTVYMELSSLRSEDTAVYFCARVRSGNDALDFWGQGTLVTVSS
VL: EIVLTQSPATLSLSPGERATLSCRASESVDEYGISFMNWYQQKPGQAPRLLIYSASNQGSGIPARFSGSGSGTDFTLTISSLEPEDFAVYFCQQSKEVPWTFGGGTKLEIK
notes: as for B1

These binders were tested against T1, IL-11 protein (assay: SPR (Biacore), antibody captured, 400 nM IL-11 as analyte).
Experimental: The measure method included the steps of capturing the humanized antibody at a flow rate of 10 ul/min. […] Finally the chip was regenerated with 10 mM glycine buffer.
A Kd of 9.76 nM, a koff of 0.000464 s⁻¹ and a kon of 47600 M⁻¹ s⁻¹ were found for B1 in this work. A Kd of 21.6 nM, a koff of 0.000758 s⁻¹ and a kon of 35100 M⁻¹ s⁻¹ were found for B2 in this work. A Kd of 11.7 nM, a koff of 0.000387 s⁻¹ and a kon of 33100 M⁻¹ s⁻¹ were found for B3 in this work. A Kd of 16.7 nM, a koff of 0.00089 s⁻¹ and a kon of 53400 M⁻¹ s⁻¹ were found for B4 in this work. A Kd of 17.2 nM, a koff of 0.00084 s⁻¹ and a kon of 48900 M⁻¹ s⁻¹ were found for B5 in this work. A Kd of 11.2 nM, a koff of 0.000516 s⁻¹ and a kon of 46100 M⁻¹ s⁻¹ were found for B6 in this work. A Kd of 11.2 nM, a koff of 0.000461 s⁻¹ and a kon of 41300 M⁻¹ s⁻¹ were found for B7 in this work. A Kd of 12.3 nM, a koff of 0.000436 s⁻¹ and a kon of 35500 M⁻¹ s⁻¹ were found for B8 in this work. A Kd of 14.6 nM, a koff of 0.00068 s⁻¹ and a kon of 46500 M⁻¹ s⁻¹ were found for B9 in this work. A Kd of 11.1 nM, a koff of 0.000614 s⁻¹ and a kon of 55200 M⁻¹ s⁻¹ were found for B10 in this work.
